For six proteins, Km, kcat and kcat/Km results are on record in patent publication US12371675B2, “Process and microorganism for synthesis of adipic acid from carboxylic acids” (THE GOVERNING COUNCIL OF THE UNIVERSITY OF TORONTO, priority 2015, dated 2025).

Substrate in data set [1]: O=C(O)CCCCCO
Put plainly: purified protein, by the assay type. As to conditions: other: ATP/NADPH dependent reduction; pH 7.5.

Substrate in data set [2]: O=CCCCCC=O
The data set can be described thus: AT kinetics, coupled with alanine and glutamate dehydrogenases. Type of data set: biochemical, Sinorhizobium meliloti. The following applies: other: amino-donor Ala/Glu; pH 7.5. The protocol: 28 PLP-dependent aminotransferases (from the classes I, II and III) were cloned and overexpressed in E. coli (Table 6). Enzymes were purified using affinity chromatography on a Ni-NTA resin and were screened for […] activity towards adipaldehyde using alanine and glutamate as amino-donors. Enzyme activity was measured spectrophotometrically using a coupled reaction with the NADPH/NADH-dependent alanine and glutamate dehydrogenases in the presence of excess of ammonium chloride.
Reaction was monitored by following the decrease in absorbance of NAD(P)H to NAD(P)+ at 340 nm (ε340 nm=6,220/M·cm). Coupled enzymes can aminate pyruvate/ketoglutarate produced by ATs in excess of NH4Cl.

B1: Mycobacterium smegmatis carboxylate reductase MSMEI_5586, SEQ ID NO: 35 (Mycolicibacterium smegmatis MC2 155) (protein)
chain: MHQLTVTGMNICEVQRLFPRMTSDVHDATDGVTETALDDEQSTRRIAELYATDPEFAAAAPLPAVVDAAHKPGLRLAEILQTLFTGYGDRPALGYRARELATDEGGRTVTRLLPRFDTLTYAQVWSRVQAVAAALRHNFAQPIYPGDAVATIGFASPDYLTLDLVCAYLGLVSVPLQHNAPVSRLAPILAEVEPRILTVSAEYLDLAVESVRDVNSVSQLVVFDHHPEVDDHRDALARAREQLAGKGIAVTTLDAIADEGAGLPAEPIYTADHDQRLAMILYTSGSTGAPKGAMYTEAMVARLWTMSFITGDPTPVINVNFMPLNHLGGRIPISTAVQNGGTSYFVPESDMSTLFEDLALVRPTELGLVPRVADMLYQHHLATVDRLVTQGADELTAEKQAGAELREQVLGGRVITGFVSTAPLAAEMRAFLDITLGAHIVDGYGLTETGAVTRDGVIVRPPVIDYKLIDVPELGYFSTDKPYPRGELLVRSQTLTPGYYKRPEVTASVFDRDGYYHTGDVMAETAPDHLVYVDRRNNVLKLAQGEFVAVANLEAVFSGAALVRQIFVYGNSERSFLLAVVVPTPEALEQYDPAALKAALADSLQRTARDAELQSYEVPADFIVETEPFSAANGLLSGVGKLLRPNLKDRYGQRLEQMYADIAATQANQLRELRRAAATQPVIDTLTQAAATILGTGSEVASDAHFTDLGGDSLSALTLSNLLSDFFGFEVPVGTIVNPATNLAQLAQHIEAQRTAGDRRPSFTTVHGADATEIRASELTLDKFIDAETLRAAPGLPKVTTEPRTVLLSGANGWLGRFLTLQWLERLAPVGGTLITIVRGRDDAAARARLTQAYDTDPELSRRFAELADRHLRVVAGDIGDPNLGLTPEIWHRLAAEVDLVVHPAALVNHVLPYRQLFGPNVVGTAEVIKLALTERIKPVTYLSTVSVAMGIPDFEEDGDIRTVSPVRPLDGGYANGYGNSKWAGEVLLREAHDLCGLPVATFRSDMILAHPRYRGQVNVPDMFTRLLLSLLITGVAPRSFYIGDGERPRAHYPGLTVDFVAEAVTTLGAQQREGYVSYDVMNPHDDGISLDVFVDWLIRAGHPIDRVDDYDDWVRRFETALTALPEKRRAQTVLPLLHAFRAPQAPLRGAPEPTEVFHAAVRTAKVGPGDIPHLDEALIDKYIRDLREFGLI
What is called Km is the concentration of substrate that gives half-maximal velocity. For orientation: kcat means the number of substrate molecules converted per active site and unit of time at saturation. In general, kcat/Km refers to the turnover number divided by the Michaelis constant. As for B1, in data set [1], the Km was found to be 16.2 ± 2.11 mM, the kcat turned out to be 1.2 ± 0.07 s⁻¹ and the kcat/Km was 74.2 ± 4.05 M⁻¹ s⁻¹.

B2: Mycobacterium smegmatis carboxylate reductase MSMEG_5739, SEQ ID NO: 37 (Mycolicibacterium smegmatis MC2 155) (protein)
chain: MTSDVHDATDGVTETALDDEQSTRRIAELYATDPEFAAAAPLPAVVDAAHKPGLRLAEILQTLFTGYGDRPALGYRARELATDEGGRTVTRLLPRFDTLTYAQVWSRVQAVAAALRHNFAQPIYPGDAVATIGFASPDYLTLDLVCAYLGLVSVPLQHNAPVSRLAPILAEVEPRILTVSAEYLDLAVESVRDVNSVSQLVVFDHHPEVDDHRDALARAREQLAGKGIAVTTLDAIADEGAGLPAEPIYTADHDQRLAMILYTSGSTGAPKGAMYTEAMVARLWTMSFITGDPTPVINVNFMPLNHLGGRIPISTAVQNGGTSYFVPESDMSTLFEDLALVRPTELGLVPRVADMLYQHHLATVDRLVTQGADELTAEKQAGAELREQVLGGRVITGFVSTAPLAAEMRAFLDITLGAHIVDGYGLTETGAVTRDGVIVRPPVIDYKLIDVPELGYFSTDKPYPRGELLVRSQTLTPGYYKRPEVTASVFDRDGYYHTGDVMAETAPDHLVYVDRRNNVLKLAQGEFVAVANLEAVFSGAALVRQIFVYGNSERSFLLAVVVPTPEALEQYDPAALKAALADSLQRTARDAELQSYEVPADFIVETEPFSAANGLLSGVGKLLRPNLKDRYGQRLEQMYADIAATQANQLRELRRAAATQPVIDTLTQAAATILGTGSEVASDAHFTDLGGDSLSALTLSNLLSDFFGFEVPVGTIVNPATNLAQLAQHIEAQRTAGDRRPSFTTVHGADATEIRASELTLDKFIDAETLRAAPGLPKVTTEPRTVLLSGANGWLGRFLTLQWLERLAPVGGTLITIVRGRDDAAARARLTQAYDTDPELSRRFAELADRHLRVVAGDIGDPNLGLTPEIWHRLAAEVDLVVHPAALVNHVLPYRQLFGPNVVGTAEVIKLALTERIKPVTYLSTVSVAMGIPDFEEDGDIRTVSPVRPLDGGYANGYGNSKWAGEVLLREAHDLCGLPVATFRSDMILAHPRYRGQVNVPDMFTRLLLSLLITGVAPRSFYIGDGERPRAHYPGLTVDFVAEAVTTLGAQQREGYVSYDVMNPHDDGISLDVFVDWLIRAGHPIDRVDDYDDWVRRFETALTALPEKRRAQTVLPLLHAFRAPQAPLRGAPEPTEVFHAAVRTAKVGPGDIPHLDEALIDKYIRDLREFGLI
B2: in data set [1], the Km amounted to 8.33 ± 0.73 mM, the kcat was 1.21 ± 0.04 s⁻¹ and the kcat/Km is 145 ± 4.4 M⁻¹ s⁻¹.

B3: Sinorhizobium meliloti aminotransferase SM2011_b20423, SEQ ID NO: 60 (Sinorhizobium meliloti 1021) (protein)
chain: MLERSNELTAWDRDHFFHPSTHMGMHARGETPTRVIGGGEGVYITDISGKRSLDAFAGLYCVNVGYGRQKIADAIAEQAKNLAYYHAYVGHGTEASIRLSKMIIDRAPEGMSRVYFGLSGSDANETNIKLIWYYNNILGRPEKKKIISRWRGYHGSGVMTGSLTGLHLFHNAFDLPRAPILHTEAPYYFRRPDRSMSEEQFSQYCADKLEEMILAEGPDTVAAFIGEPILGTGGIVPPPKGYWEKIQAVLQKYDILLVADEVVTGFGRLGTMFGSDHYGIKPDLITIAKGLTSAYAPLSGTIVSDKLWQVLVKGSDELGAIGHGWTYSAHPICAAAGIANLELIDELGIVENAGSTGAYFRAELQKAVGDHRHVGEVRGDGLMAAIEFVEDRDDRAFFDPGRKVGPQVAAALLERGVIGRAMPQGDILGFAPPLCLTRDEADIVVKAAADTIQSVLGR
Consider B3, for which, in data set [2], the Km turned out to be 2.64 ± 0.35 mM, the kcat turned out to be 0.28 ± 0.01 s⁻¹ and the kcat/Km result is given as “(1.05 ± 0.06) × ×10^2 M^−1 · s^−1”.

B4: Mycobacterium smegmatis carboxylate reductase MSMEG_2956, SEQ ID NO: 70 (Mycolicibacterium smegmatis MC2 155) (protein)
chain: MTIETREDRFNRRIDHLFETDPQFAAARPDEAISAAAADPELRLPAAVKQILAGYADRPALGKRAVEFVTDEEGRTTAKLLPRFDTITYRQLAGRIQAVTNAWHNHPVNAGDRVAILGFTSVDYTTIDIALLELGAVSVPLQTSAPVAQLQPIVAETEPKVIASSVDFLADAVALVESGPAPSRLVVFDYSHEVDDQREAFEAAKGKLAGTGVVVETITDALDRGRSLADAPLYVPDEADPLTLLIYTSGSTGTPKGAMYPESKTATMWQAGSKARWDETLGVMPSITLNFMPMSHVMGRGILCSTLASGGTAYFAARSDLSTFLEDLALVRPTQLNFVPRIWDMLFQEYQSRLDNRRAEGSEDRAEAAVLEEVRTQLLGGRFVSALTGSAPISAEMKSWVEDLLDMHLLEGYGSTEAGAVFIDGQIQRPPVIDYKLVDVPDLGYFATDRPYPRGELLVKSEQMFPGYYKRPEITAEMFDEDGYYRTGDIVAELGPDHLEYLDRRNNVLKLSQGEFVTVSKLEAVFGDSPLVRQIYVYGNSARSYLLAVVVPTEEALSRWDGDELKSRISDSLQDAARAAGLQSYEIPRDFLVETTPFTLENGLLTGIRKLARPKLKAHYGERLEQLYTDLAEGQANELRELRRNGADRPVVETVSRAAVALLGASVTDLRSDAHFTDLGGDSLSALSFSNLLHEIFDVDVPVGVIVSPATDLAGVAAYIEGELRGSKRPTYASVHGRDATEVRARDLALGKFIDAKTLSAAPGLPRSGTEIRTVLLTGATGFLGRYLALEWLERMDLVDGKVICLVRARSDDEARARLDATFDTGDATLLEHYRALAADHLEVIAGDKGEADLGLDHDTWQRLADTVDLIVDPAALVNHVLPYSQMFGPNALGTAELIRIALTTTIKPYVYVSTIGVGQGISPEAFVEDADIREISATRRVDDSYANGYGNSKWAGEVLLREAHDWCGLPVSVFRCDMILADTTYSGQLNLPDMFTRLMLSLVATGIAPGSFYELDADGNRQRAHYDGLPVEFIAEAISTIGSQVTDGFETFHVMNPYDDGIGLDEYVDWLIEAGYPVHRVDDYATWLSRFETALRALPERQRQASLLPLLHNYQQPSPPVCGAMAPTDRFRAAVQDAKIGPDKDIPHVTADVIVKYISNLQMLGLL
Regarding B4, in data set [1], the Michaelis-Menten constant (Km) was determined as 66.15 ± 9.48 mM, the turnover number (kcat) is 2.32 ± 0.22 s⁻¹ and the kcat/Km is 35.1 ± 3.29 M⁻¹ s⁻¹.

B5: Sinorhizobium meliloti aminotransferase SM2011_c04388, SEQ ID NO: 58 (Sinorhizobium meliloti 1021) (protein)
chain: MNAHNKPNAPVLDSYWMPFTANRQFKAAPRLLAAAEGMHYTSVDGRTVLDGTAGLWCVNAGHGRRQIAAAVERQLSTMDFAPSFQMGHPIAFDFAERLAEIAPGPAGAKLDRVFFTGSGSESVDTALKMALAYQRSIGQGTRTRLIGRERGYHGVGFGGISVGGIVNNRRVFPQLPGSDHLRHTHDPAKNAFVKGQPEHGAELADDLERLVALHGAETIAACIVEPVAGSTGVLIPPKGYLERLRAICDKHGILLIFDEVITGFGRLGAAFATDYFGVTPDIVTTAKGLTNGAIPMGAVFASRKVHDALMHGPEGQIELFHGYTYSGHPAACAAGIATLDIYRDEGLMTRAAEIEGDWHEAMHSMKGLPHVIDIRTIGLIAGIELQSRDGAPGARAYDVFVDCFERGLLIRVTGDIIAFSPPLIAEKQHFGEIVSILADALKRVK
With B5, the Km in data set [2] is recorded as 8.58 ± 3.34 mM.

B6: Sinorhizobium meliloti aminotransferase SM2011_b20379, SEQ ID NO: 59 (Sinorhizobium meliloti 1021) (protein)
chain: MNDRPNSLHALDKQSLVHPYTNLAVHQETGPHVITGGDGIYVVDDEGKRYIEGLAGLFCAGLGFSEQRLVEAATRQLKTMPFYHSFAHKSTEPGIRLAEKLLSIAPVPMSKVFFAGSGSEANDTAIKLIWYYNNALGRPEKKKIISRRKAYHGVTVATASLTGLPFNHRDFDLPIANILHTDCPHYWRFAETGETEEDFATRMANNLEAIILEEGPETIAAFFAEPVMVSGGVITPPKTYFEKVQAVLRKYDILLIADEVICGFGRTGNMFGSETYGLKPDMISCAKQLSAAYMPISALMINAKIADALVDQSRKIGTFSHGFTYGGHPVAAAVALEALTIYEEIDIVGHVRSVAPAFQDRVRKLGEHPLIGEARGVGLVAGLEFVKDKATRENFPPAWQVANQAGKFATARGVLTRGLGDMVSLCPAMIIDDEQIDDLMTRMGLALDDTLAWARAQGHVG
As for B6, in data set [2], the Km stood at 0.32 ± 0.10 mM, the kcat is 0.26 ± 0.05 s⁻¹ and the kcat/Km result is given as “(8.08 ± 1.52) × ×10^2 M^−1 · s^−1”.
